Measured values published in the RNAGym collection of RNA variant scans (doi:10.1093/nar/gkz1192).

B1: CPEB3 Ribozyme (parent)
chain: UAACAGGGGGCCACAGCAGAAGCGUUCACGUCGCAGCCCCUGUCAGAUUCUGGUGAAUCUGCGAAUUCUGCUGUAUAUCUC

Variants of: B1
Experiment: self-cleavage, relative activity (ratio to wild type); higher = more cleavage; in vitro, sequencing
Outline: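 CPEB3 self-cleaving ribozyme mutant libraries were made by rounds of error-prone PCR, barcoded, and transcribed in vitro with T7 RNA polymerase for 5 hours at 37°C. Cleavage occurred during transcription and a 15 min DNase I step before EDTA stop. RNAs were reverse transcribed with template switching and Illumina-sequenced, with DNA sequencing mapping barcodes to variants. Relative activity is the variant's cleaved/total read fraction divided by wild type's (minimum 5 reads), averaged across three batches.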

Going from A57C to G55U C81U, the self-cleavage rises from 0.48 to 0.6.

First: A56G U78G
Second: A56G U78A
The self-cleavage of the first is higher: 0.96 for the first, 0.91 for the second.

First: A56G U78C
Second: G55U C79U
The self-cleavage of the first is lower: 0.73 for the first, 1.16 for the second.

First: A56U A57U
Second: A56U A57G
The self-cleavage of the first is higher: 0.59 for the first, 0.47 for the second.

Going from G55U U67C to A56C U78C, the self-cleavage rises from 0.21 to 0.49.

First: G55U U66C
Second: A56U U80A
The self-cleavage of the first is lower: 0.49 for the first, 1 for the second.

First: A56U U80C
Second: A56G C59U
The self-cleavage of the first is higher: 0.83 for the first, 0.52 for the second.

Compared with A56G C59G, A56G C59A is higher in self-cleavage: 0.21 for the first, 0.23 for the second.

Going from A56U A77C to A56U A77G, the self-cleavage rises from 0.62 to 0.71.

Compared with A56U A77U, A56G U69A is lower in self-cleavage: 0.73 for the first, 0.5 for the second.

Going from A56G U69G to A56G U69C, the self-cleavage falls from 0.54 to 0.43.

First: A56G C62G
Second: A56G C62U
The self-cleavage of the first is lower: 0.2 for the first, 0.31 for the second.

Compared with A56G C62A, A56U C62U is lower in self-cleavage: 0.23 for the first, 0.21 for the second.

Going from A56C U69C to A56C A64U, the self-cleavage rises from 0.12 to 0.18.

Going from A56C A64G to A56C A65G, the self-cleavage falls from 0.49 to 0.22.

First: A56C
Second: A56U
The self-cleavage of the first is lower: 0.63 for the first, 0.74 for the second.

First: A56G
Second: A56U U72A
The self-cleavage of the first is higher: 0.91 for the first, 0.46 for the second.

First: A56U U72G
Second: A56U U72C
The self-cleavage of the first is lower: 0.5 for the first, 0.81 for the second.

Going from A56G U76C to A56G U76A, the self-cleavage rises from 0.85 to 1.07.

Compared with G55U U78C, A56C A57G is lower in self-cleavage: 0.75 for the first, 0.5 for the second.

Compared with A56G C79G, A56G C79A is higher in self-cleavage: 1.16 for the first, 1.18 for the second.

Going from A56U C79A to G55U U69C, the self-cleavage falls from 1.12 to 0.48.

First: A56G U67A
Second: A56G U67C
The self-cleavage of the first is higher: 0.46 for the first, 0.3 for the second.

Compared with A56U G73A, A56U U66A is lower in self-cleavage: 1.18 for the first, 0.25 for the second.

First: A56U U66C
Second: A56U G61A
The self-cleavage of the first is higher: 0.32 for the first, 0.29 for the second.

Going from A56U U58C to A56U U58A, the self-cleavage rises from 0.3 to 0.31.

Compared with A56U U58G, A56U A75G is higher in self-cleavage: 0.18 for the first, 0.54 for the second.

First: A56U A75U
Second: G55U A75G
The self-cleavage of the first is lower: 0.79 for the first, 0.92 for the second.

Compared with A56G G61U, A56G G61A is higher in self-cleavage: 0.62 for the first, 0.63 for the second.

First: A56U G63C
Second: A56U G63A
The self-cleavage of the first is higher: 0.61 for the first, 0.48 for the second.

First: A56C U72A
Second: A56C U72C
The self-cleavage of the first is lower: 0.18 for the first, 0.52 for the second.

Going from A57C A75U to A56G G63U, the self-cleavage rises from 0.58 to 1.03.

First: A56G G63A
Second: A56U G70U
The self-cleavage of the first is higher: 0.97 for the first, 0.21 for the second.

First: A56U G70A
Second: A56G A75U
The self-cleavage of the first is lower: 0.35 for the first, 0.95 for the second.

First: A56G A75C
Second: A56G A75G
The self-cleavage of the first is higher: 1.12 for the first, 0.64 for the second.

Going from A56G U80A to A56G U80C, the self-cleavage falls from 0.92 to 0.84.

Going from A56G U80G to A56U U76A, the self-cleavage falls from 0.99 to 0.84.

First: A56U U76C
Second: A56U U76G
The self-cleavage of the first is lower: 0.8 for the first, 0.89 for the second.

First: A56C U66C
Second: G55U C62U
The self-cleavage of the first is higher: 0.32 for the first, 0.23 for the second.

Going from A56G U58G to A56G U58A, the self-cleavage rises from 0.22 to 0.32.

Going from A56G U58C to A56G C71U, the self-cleavage rises from 0.38 to 0.51.

A56C U60C gave a self-cleavage of 0.18.
